Non-standard residues stand in square brackets, D forms with d. No end group written: not given here. sY = N[C@@H](Cc1ccc(OS(=O)(=O)O)cc1)C(=O)O
Assays:
Details in all cases: remark: other sources report otherwise
Y1 scFv [1] = experiment: competition ELISA on coated glycocalicin, 0.25 µg/well Y1, peptide 200 µM
Y1 scFv [2] = experiment: competition ELISA on coated glycocalicin, 0.25 µg/well Y1, peptide 25 µM
Y1 scFv [3] = experiment: competition ELISA on coated glycocalicin, 0.25 µg/well Y1, peptide 0.5 µM
Y1 scFv [4] = experiment: competitive FACS, 1 µg Y1-scFv on ~10^7 washed platelets, peptide 200 µM
Y1 scFv [5] = experiment: competition ELISA on coated glycocalicin, 0.25 µg/well Y1, peptide 2.5 µM
Y1 scFv [6] = experiment: competitive FACS, 1 µg Y1-scFv on ~10^7 washed platelets, peptide 2.5 µM

Chain of Y1 scFv (chain, as listed by the source): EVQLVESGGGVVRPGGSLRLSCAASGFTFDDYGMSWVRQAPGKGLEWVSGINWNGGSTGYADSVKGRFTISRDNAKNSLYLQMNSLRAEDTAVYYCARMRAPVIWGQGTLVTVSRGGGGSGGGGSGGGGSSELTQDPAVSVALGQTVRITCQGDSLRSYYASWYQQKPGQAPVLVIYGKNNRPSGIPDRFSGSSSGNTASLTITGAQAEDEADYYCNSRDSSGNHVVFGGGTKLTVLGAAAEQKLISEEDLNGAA

**Q.** Which results are given for GDEGDTDL[sY]D[sY][sY]PEEDTE [P-1-S]?
**A.** Residual Binding of Y1 (% of baseline) (% of baseline) (Y1 scFv [1]): 0; Residual Binding of Y1 (% of baseline) (% of baseline) (Y1 scFv [2]): 25; Residual Binding of Y1 (% of baseline) (% of baseline) (Y1 scFv [3]): 89; Residual Binding of Y1 (% of baseline) (Geo Mean) (% of baseline) (Y1 scFv [4]): 5; Residual Binding of Y1 (% of baseline) (% of baseline) (Y1 scFv [5]): 62; Residual Binding of Y1 (% of baseline) (Geo Mean) (% of baseline) (Y1 scFv [6]): 41
